Results from patent publication US9492510B2, “Composition and method for inhibiting tumor cell growth” (St. Jude Children's Research Hospital, priority 2006, dated 2016).

B1: rCE: wild-type rabbit liver carboxylesterase, Genbank AF036930 (protein, listed as Oryctolagus cuniculus)
chain: GSLRFAPPQPAESWSHVKNTTSYPPMCSQDAVSGHMLSELFTNRKENIPLKFSEDCLYLNIYTPADLTKRGRLPVMVWIHGGGLMVGGASTYDGLALSAHENVVVVTIQYRLGIWGFFSTGDEHSRGNWGHLDQVAALRWVQDNIANFGGDPGSVTIFGESAGGQSVSILLLSPLTKNLFHRAISESGVALLSSLFRKNTKSLAEKIAIEAGCKTTTSAVMVHCLRQKTEEELMEVTLKMKFMALDLVGDPKENTAFLTTVIDGVLLPKAPAEILAEKKYNMLPYMVGINQQEFGWIIPMQMLGYPLSEGKLDQKTATELLWKSYPIVNVSKELTPVATEKYLGGTDDPVKKKDLFLDMLADLLFGVPSVNVARHHRDAGAPTYMYEYRYRPSFSSDMRPKTVIGDHGDEIFSVLGAPFLKEGATEEEIKLSKMVMKYWANFARNGNPNGEGLPQWPAYDYKEGYLQIGATTQAAQKLKDKEVAFWTELWAKEAARPRETEHIEL
B2: hCE1 variant hCE1m6 (hCE1mut6; L362M, M363L, K459R, F448Y, Q449R, L358I, S364G, Q362 insertion), SEQ ID NO:3 (Homo sapiens; … (protein)
chain: GHPSSPPVVDTVHGKVLGKFVSLEGFAQPVAIFLGIPFAKPPLGPLRFTPPQPAEPWSFVKNATSYPPMCTQDPKAGQLLSELFTNRKENIPLKLSEDCLYLNIYTPADLTKKNRLPVMVWIHGGGLMVGAASTYDGLALAAHENVVVVTIQYRLGIWGFFSTGDEHSRGNWGHLDQVAALRWVQDNIASFGGNPGSVTIFGESAGGESVSVLVLSPLAKNLFHRAISESGVALTSVLVKKGDVKPLAEQIAITAGCKTTTSAVMVHCLRQKTEEELLETTLKMKFLSLDLQGDPRESQPLLGTVIDGMLLLKTPEELQAERNFHTVPYMVGINKQEFGWIIPMQMLGYPLSEGQLDQKTAMSLLWKSYPLVCIAKELIPEATEKYLGGTDDTVKKKDLFLDLIADVMFGVPSVIVARNHRDAGAPTYMYEYRYRPSFSSDMRPKTVIGDHGDELFSVFGAPFLKEGASEEEIRLSKMVMKFWANFARNGNPNGEGLPHWPEYNQKEGYLQIGANTQAAQKLKDKEVAFWTNLFAKKAVEKPPQTEHIEL
B3: hCE1: wild-type human liver carboxylesterase, Genbank M73499 (protein, listed as Homo sapiens)
chain: MWLRAFILATLSASAAWGHPSSPPVVDTVHGKVLGKFVSLEGFAQPVAIFLGIPFAKPPLGPLRFTPPQPAEPWSFVKNATSYPPMCTQDPKAGQLLSELFTNRKENIPLKLSEDCLYLNIYTPADLTKKNRLPVMVWIHGGGLMVGAASTYDGLALAAHENVVVVTIQYRLGIWGFFSTGDEHSRGNWGHLDQVAALRWVQDNIASFGGNPGSVTIFGESAGGESVSVLVLSPLAKNLFHRAISESGVALTSVLVKKGDVKPLAEQIAITAGCKTTTSAVMVHCLRQKTEEELLETTLKMKFLSLDLQGDPRESQPLLGTVIDGMLLLKTPEELQAERNFHTVPYMVGINKQEFGWLIPMLMSYPLSEGQLDQKTAMSLLWKSYPLVCIAKELIPEATEKYLGGTDDTVKKKDLFLDLIADVMFGVPSVIVARNHRDAGAPTYMYEFQYRPSFSSDMKPKTVIGDHGDELFSVFGAPFLKEGASEEEIRLSKMVMKFWANFARNGNPNGEGLPHWPEYNQKEGYLQIGANTQAAQKLKDKEVAFWTNLFAKKAVEKPPQTEHIEL
B4: secreted form of hCE1mut6: mutant human CE lacking the six C-terminal amino acid residues (Thr-Glu-His-Ile-Glu-Leu); expressed from pIRESmut6C (protein)
chain: MWLRAFILATLSASAAWGHPSSPPVVDTVHGKVLGKFVSLEGFAQPVAIFLGIPFAKPPLGPLRFTPPQPAEPWSFVKNATSYPPMCTQDPKAGQLLSELFTNRKENIPLKLSEDCLYLNIYTPADLTKKNRLPVMVWIHGGGLMVGAASTYDGLALAAHENVVVVTIQYRLGIWGFFSTGDEHSRGNWGHLDQVAALRWVQDNIASFGGNPGSVTIFGESAGGESVSVLVLSPLAKNLFHRAISESGVALTSVLVKKGDVKPLAEQIAITAGCKTTTSAVMVHCLRQKTEEELLETTLKMKFLSLDLQGDPRESQPLLGTVIDGMLLLKTPEELQAERNFHTVPYMVGINKQEFGWIIPMQMLGYPLSEGQLDQKTAMSLLWKSYPLVCIAKELIPEATEKYLGGTDDTVKKKDLFLDLIADVMFGVPSVIVARNHRDAGAPTYMYEYRYRPSFSSDMRPKTVIGDHGDELFSVFGAPFLKEGASEEEIRLSKMVMKFWANFARNGNPNGEGLPHWPEYNQKEGYLQIGANTQAAQKLKDKEVAFWTNLFAKKAVEKPPQ
modifications: Synthethic mutant human carboxylesterase
notes: mutant human CE lacking the six C-terminal amino acid residues (Thr-Glu-His-Ile-Glu-Leu); expressed from pIRESmut6C

Assays:
[1] = Carboxylesterase (CE) activity of whole cell sonicates of transiently transfected Cos7 cells, o-NPA substrate; type: biochemical
Description: (§1) Whole cell sonicates were monitored for CE activity. Results were expressed as nmoles o-nitrophenol produced per minute per milligram of total protein. To correct for differences in CE expression within transfected cells, the enzyme activity values were corrected for the level of immunoreactive CE protein as determined using a western blot analysis.
(§2) Carboxylesterase Assays. CE activity was determined using a spectrophotometric assay with 3 mM o-nitrophenyl acetate (o-NPA) as a substrate (Potter, et al. 1998. Cancer Res. 52:2646-2651; Wierdl, et al. 2001. Cancer Res. 61:5078-5082; Beaufay, et al. 1974. J. Cell Biol. 61:188-200). Data were expressed as nmoles o-nitrophenol produced per minute per milligram of protein. To correct for differences in CE expression within transfected cells, the enzyme activity values were corrected for the level of immuno-reactive CE protein as determined from western analyses.
(§3) Transfection of Cell Lines. Transient transfection of Cos7 cells was achieved by electroporation (Potter, et al. 1998. Cancer Res. 52:2646-2651). For the generation of stable cell lines, cDNAs were ligated into pIRESneo and U373MG cells were electroporated under similar conditions. Transfectants were selected in media containing 400 μg/ml of G418. Since the CE cDNA was linked via an internal ribosome entry sequence (IRES) to the neomycin gene, selection of individual G418-resistant clones was not necessary. Routinely, whole cell sonicates obtained from these pooled populations of cells contained 200-500 nmoles/min/mg of CE activity.
(§4) Western Analysis. Cell extracts were separated in 4-20% pre-cast SDS-PAGE gels (Invitrogen, Carlsbad, Calif.) and following transfer to Immobilon-P membranes by electroblotting (Matsuidaira. 1990. Methods Enzymol. 182:602-613), western analysis was performed using known methods (Morton & Potter. 1998. J. Pharmacol. Expt. Therap. 286:1066-1073). CEs were identified using an anti-peptide antibody raised against the C-terminal amino acids […] In all experiments, membranes were re-probed with an anti-TFIID antibody to confirm equal loading, and to correct for any differences in total protein. The molecular weight of immuno-reactive bands was determined using pre-stained molecular weight protein markers (Pierce, Rockford, Ill.). Densitometric quantitation of CE expression was performed using One-Dscan gel analysis software (Scanalytics Inc, Fairfax, Va.).

[2] = CPT-11 conversion assay (CPT-11 to SN-38) with extracts of transfected COS-7 cells, HPLC; type: biochemical; conditions: Cos7 cell extracts
Description: as §1
This was necessary since it was unclear whether the mutations would influence the ability of the CEs to metabolize o-NPA, which is used as a measure of enzyme activity.
CPT-11 Conversion Assays. […] An equal volume of acidified methanol was added to terminate the reactions and particulate matter was removed by centrifugation at 100,000 g for 5 minutes at 4° C. Concentrations of both drugs in the supernatant were then determined by HPLC (Guichard, et al. 1998. Clin. Cancer Res. 4:3089-3094; Morton, et al. 2000. Cancer Res. 60:4206-4210).
as §4

[3] = Kinetic parameters for CPT-11 hydrolysis by purified recombinant CEs; type: biochemical; conditions: hCE1 and rCE values rest on cited data
Description: To directly compare the abilities of the mammalian CEs to hydrolyze CPT-11, a series of biochemical studies were carried out using the purified proteins in vitro. These experiments determined the Km, Vmax, kcat and kcat/Km values for the different enzymes.
Protein Purification. […] For hiCE, an alternative purification procedure was developed using DEAE chromatography and elution with a pH/salt gradient.
Determination of Kinetic Parameters for Substrate Hydrolysis.

[4] = CE activity (o-NPA) in human tumor cell lines expressing CE after plasmid transfection or adenoviral transduction; type: biochemical; conditions: for CE Activity: ± SD, U373MG cells stably transfected (pIRESneo) expressing the enzyme
Description: […], it was observed that expression of hiCE following plasmid-mediated transfection was frequently lower than that seen with rCE or […]. […] Since expression of the transgene from this expression vector is co-regulated with the neo gene via an IRES sequence, selection with similar concentrations of G418 should result in cell lines that express approximately equal levels of recombinant protein. However, the average levels of CE activity in U373hiCE, U373hCE1 and U373hCE1m6 cells were 287.6±76.6, 1077.1±77.5, and 466.5±52.6 nmoles/min/mg, respectively.
as §2, §3
(§5) Construction of Adenovirus. Replication-deficient adenovirus expressing hCElm6 or rCE were constructed using standard protocols (Wierdl, et al. 2001. Cancer Res. 61:5078-5082). Multiplicity of infection (moi) was defined as the number of plaques produced in 1×10^6 293 cells in a total volume of 1 ml of media after incubation with virus for 1 hour.

U373MG cells = assay: Growth inhibition by CPT-11 of U373MG cells; type: cell-based, human; conditions: for sensitization of cells to CPT-11: U373MG cells expressing the labelled enzyme
Description: Experiments were also performed in human brain tumor cells (U373MG) where the growth of the cells was examined in cells that expressed the mutant form of the human CE enzyme.
Experiments were also performed to determine whether cells expressing a secreted form of hCElm6 (SEQ ID NO:16) produced media that had CE activity.
Transfection of Cell Lines. Transient transfection of Cos7 cells was achieved by electroporation (Potter, et al. 1998. Cancer Res. 52:2646-2651). For the generation of stable cell lines, cDNAs were ligated into pIRESneo and U373MG cells were electroporated under similar conditions. Transfectants were selected in media containing 400 μg/ml of G418. Since the CE cDNA was linked via an internal ribosome entry sequence (IRES) to the neomycin gene, selection of individual G418-resistant clones was not necessary.
as §5
Growth Inhibition Assays.

[5] = substrate: CCc1c2c(nc3ccc(OC(=O)N4CCC(N5CCCCC5)CC4)cc13)-c1cc3c(c(=O)n1C2)COC(=O)[C@]3(O)CC; assay: purified protein, by the assay type; conditions: other: CPT-11 hydrolysis, hCE1m6
[6] = Table 3, Cos7 whole cell sonicates, 3 mM o-NPA, nmoles o-nitrophenol per min per mg
[7] = Table 4, rCE mutant panel, Cos7 extracts, o-NPA

Molecule | CE Activity [1, 6] | CE Activity [1, 7] | CPT-11 Converting Activity ([2]; Table 3, 5 μM CPT-11, 1 hour, corrected for CE protein by western) | CPT-11 Converting Activity ([2]; Table 4, rCE mutant panel) | Ratio kcat/Km as compared to hCE1 [3] | CE Activity [4] | sensitization of cells to CPT-11 (U373MG cells) | Km [5] | average levels of CE activity ([4]; U373MG cells stably transfected with pIRESneo constructs, monitored over an extended time period) | fold reduction in the IC50 value for CPT-11 (U373MG cells; U373MG cells expressing intracellular (u373IRESmut6) or secreted (U373IRESmut6C) form, FIG. 4)
B1 | 332.7 ± 17.2 nmol/min/mg | 243.1 ± 17.0 nmol/min/mg CE | 41 pmol/hr/mg CE | 75.6 pmol/hr/mg CE | 650 | 601.0 ± 20.5 nmol/min/mg | sensitized |  |  | 
B2 |  |  |  |  |  |  |  | 6.25 ± 0.59 µM |  | 
B3 | 119.0 ± 5.0 nmol/min/mg | 329.2 ± 11.6 nmol/min/mg CE |  | Not Detected | 1 | 1016.4 ± 45.5 nmol/min/mg | not sensitized |  | 1077.1 ± 77.5 nmol/min/mg | 
B4 |  |  |  |  |  |  |  |  |  | ~130 fold
